Experimental data published in patent US20140113854.

Q: Which “cleavage of the peptide by thrombin, HPLC of the intact peptide, 75 µM peptide, 23 nM thrombin, 37 °C” value (BRI-T208) does the source give for Human α-thrombin here?
A: BRI-T208 is significantly more resisitent to thrombin cleavage than BRI-T218

Q: And the “cleavage of the peptide by thrombin, HPLC of the intact peptide, 75 µM peptide, 23 nM thrombin, 37 °C” value (BRI-T218)?
A: completely converted to the cleavage products within two hours under the specific experimental conditions
